Target: T1, SDS22 (tag-free, purified) (human, UniProt Q15435 1-360)
T1 construct: SDS22 (PPP1R7), human, wild type; also called SDS22-WT; untagged SDS22; source: HEK293T, transiently transfected; EGFP-SDS22 purified on EGFP-trap beads, tag-free after TEV protease
T1 sequence (looked up): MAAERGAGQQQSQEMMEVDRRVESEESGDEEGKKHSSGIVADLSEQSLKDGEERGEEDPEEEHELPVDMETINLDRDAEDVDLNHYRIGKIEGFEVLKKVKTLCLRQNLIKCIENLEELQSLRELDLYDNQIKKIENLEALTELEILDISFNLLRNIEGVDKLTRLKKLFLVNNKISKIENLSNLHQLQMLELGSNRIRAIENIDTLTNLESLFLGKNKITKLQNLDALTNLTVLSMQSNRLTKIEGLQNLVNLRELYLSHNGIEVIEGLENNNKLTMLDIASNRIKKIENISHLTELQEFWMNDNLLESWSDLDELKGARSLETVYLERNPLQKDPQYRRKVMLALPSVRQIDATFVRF
Assay: ITC; 5 μM SDS22 in the cell titrated with 50 μM His-I3 (20 injections), 22 °C, MicroCal iTC200; binding curves not saturated
Conditions: both partners purified

B1: His-I3 (natural protein, human, UniProt O60927 1-126, looked up)
chain: MAEAGAGLSETVTETTVTVTTEPENRSLTIKLRKRKPEKKVEWTSDTVDNEHMGRRSSKCCCIYEKPRAFGESSTESDEEEEEGCGHTHCVRGHRKGRRRATLGPTPTTPPQPPDPSQPPPGPMQH
notes: source: E. coli BL21 (pET16b), purified (Ni2+-Sepharose)
With B1 as the binder, how does the Kd read?
The Kd was 7.6 µM.
